Substrate: CC(C)CCC[C@@H](C)[C@H]1CC[C@H]2[C@@H]3CC=C4C[C@@H](O)CC[C@]4(C)[C@H]3CC[C@]12C
Assay: purified protein
Assay type: biochemical, Rhodococcus erythropolis
Settings: O2 as co-substrate, 0-1 mM cholesterol, 50 mM sodium phosphate pH 7.0, 64 mM sodium cholate, 0.34% Triton X-100, 30°C

Protein | Km [µM] | Vmax [µmol/min/mg] | kcat [s⁻¹] | kcat/Km [M⁻¹ s⁻¹]
ChoRII (Rhodococcus erythropolis PR4) (protein, predicted mature enzyme, Tat signal peptide removed (Val-45 given, but 545 aa given would mean start at 44), C-terminal 6xHis kept, pET-21b(+), E. coli Rosetta (DE3) pLysS; precursor 588 aa, mature 59,369 Da; VAO family flavoenzyme (FAD)) VPWGSASTIAPPPGFPSDIPLSQQAYANWSREIMLESVWTATARHSDDVVTLANWAFDNGYTVRAKGTMHGWSPLTVVPGAPSDRVLLVDTMANLNSVVVQHGTPATVTAGAGASIEAILTALEREGLGWANAPAIGELSIAGALAIGAHGATYPAVGETITPGQSYGSLSNLITEITVVAWDEGRNRYGLKTFHRSDDEITAFLTHLGRTFVTSVTLQAGENYRLRCRSFTDIPWQELFAAPGSPGRTYESFVEKSGRVEAIWFPFTQTPWLKVWTPTPVKPPESREVSGPYNYFFSDAIPEEVTTPLGMVAQGLQAATPLFGASQFGAVAAGLALTDTDDLWGWSKDVLFYLRHTTLRVVAGGGAVITKRSNIGRVVHEMTSWLNERMTHYASLGQYPVNMPFEVRLCGVDDSGEVLVDSAGVPDLSAVRPRADRQDWDTAIWMNVVSIPGTAGLPAFLREMERWMVANYSGDYATFRPEWSKGWAFTDQAAYQDDEFLTSTVPATFRAGGDGNWDFALATLDEHDPHRVFSNTFIDRVLPPS | 22.1 ± 0.3 | 0.57 | 0.61 ± 0.11 | 30000 ± 10000
ChoRI (Rhodococcus erythropolis PR4) (protein, predicted mature enzyme, Tat signal peptide removed (from Val-37), C-terminal 6xHis kept, pET-21b(+), E. coli Rosetta (DE3) pLysS; precursor 587 aa, mature 551 aa, 59,590 Da; VAO family flavoenzyme (FAD)) VPAGSSGSAGGPVSTLTPPPAFPEGIALYQQAYQNWSKEIMLDAIWTCSPKTPEDVVRLANWGHANGYTIRPRGAMHGWTPLTIVNGAPVDKVILADTTVHLTGVSVNAGGSPATVTAGPGATLDAITTALQAQGLGFANLPAPGVLTIAGCLAVDAHGAALPAEGEAHVPGQTFGSLSNLVTSLTAVVWNGSEYALETYARSDAAIKPLLTHLGRTFLTSVTLQAAPNYRMRCVSHTDIGWQELFGARGASGRTFEKFVRENGRAEAIWYPFTERPWMKVWSLAPTKPPFSREVTGPYNYIFSDNLPEPVTDMIGQINAGNPGIAPAFGQIMYATTVAGLAATFSNDLWGWSKDVQFYIRATTLRLTEGGGAVITSRANIGQVIHDFTQWFNGRMEYYRSIGQFPLNGPVEIRCCGLDQPSDVEVDSAGAPTISAMRPRPDHPEWDTAIWLNVLGVPGTPGMFAFYREMEQWMRNHYNNNDATFRPEWSKGWAFGPDKPYTDAPIITQGLPQTYRDGVPSSDNWDTANAAYNALDPHKVFSNTFLDQLLP | 22.6 ± 0.5 | 6.4 | 6.8 ± 0.3 | 300000 ± 10000

Source: article PMC7588053, “Cholesterol oxidase from Rhodococcus erythropolis with high specificity toward β-cholestanol and pytosterols” (PLoS ONE, 2020)
